These results are taken from patent US8816053B2 (ZymoGenetics, Inc., priority 2004, dated 2014).

One test has as its target T1, zcyto20 (Homo sapiens, UniProt Q8IZJ0).
T1 sequence (Q8IZJ0 26-200): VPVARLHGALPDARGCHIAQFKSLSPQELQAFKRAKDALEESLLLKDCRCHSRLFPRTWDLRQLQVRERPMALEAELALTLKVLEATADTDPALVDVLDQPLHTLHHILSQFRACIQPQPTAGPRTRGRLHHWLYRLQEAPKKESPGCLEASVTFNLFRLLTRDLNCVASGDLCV
The experiment in a line: Inhibition of ligand-induced ISRE signaling by soluble receptors, 293 HEK cells overexpressing zcytor19, ligand zcyto20. The test is classed as cell-based. The settings on record: all three ligands together; soluble receptor 10 micrograms/ml. An excerpt: A signal transduction reporter assay can be used to show the inhibitor properties of zcytor19-Fc4 homodimeric and zcytor19-Fc/CRF2-4-Fc heterodimeric soluble receptors on zcyto20, zcyto21 and zcyto24 signaling. Human embryonal kidney (HEK) cells overexpressing the zcytor19 receptor are transfected with a reporter plasmid containing an interferon-stimulated response element (ISRE) driving transcription of a luciferase reporter gene. Luciferase activity following stimulation of transfected cells with ligands (including zcyto20 (SEQ ID NO:18), zcyto21 (SEQ ID NO:20), zcyto24 (SEQ ID NO:8)) reflects the interaction of the ligand with soluble receptor.
The results obtained are shown as the percent inhibition of ligand-induced signaling in the presence of soluble receptor relative to the signaling in the presence of PBS alone.

The test system of another test is mouse OAS, Pkr and Mx1. The experiment in a line: ISG gene induction in liver, spleen and blood of C57BL/6 mice injected with protein (real-time PCR). To be noted: i.p. or i.v., 10 μg-250 μg, 1 hr-48 hr. The test is classed as in vivo. The method, then: Mice were sacrificed at various time points (1 hr-48 hr). Spleens and livers were isolated from mice, and RNA was isolated. RNA was also isolated from the blood cells. The cells were pelleted and RNA isolated from pellets using RNAEasy®-kit (Qiagen). RNA was treated with DNase (Amicon) to rid RNA of any contaminating DNA. cDNA was generated using Perkin-Elmer RT mix (Perkin-Elmer). ISG gene induction was measured by real-time PCR using primers and probes specific for mouse OAS, Pkr and Mx1. To obtain quantitative data, HPRT real-time PCR was duplexed with ISG PCR. A standard curve was calculated using known amounts of IFN-stimulated mouse PBLs. All data are shown as expression relative to internal HPRT expression.
Results shown are fold expression relative to HPRT gene expression. […] The data shown is the average expression from 5 different animals/group.
Mice were injected with 100 μg of proteins i.v. Data shown is fold expression over HPRT expression from livers of mice. Similar data was obtained from blood and spleens of mice.
A general note: In qPCR the cycle at which signal appears reflects the starting amount.

In test [1] the test system is mouse OAS, Pkr and Mx1 in AML-12 cells. Description: ISG induction in the mouse liver cell line AML-12 (real-time PCR). The test is classed as cell-based. To be noted: AML-12, 20 ng/ml, 48 hour time point.
The next test concerns adenoviral vector, AdGFP. The experiment in a line: Adenoviral vector (AdGFP) liver pathology model in C57Bl/6 mice. To be noted: 50 μg i.p., 7 doses; H&E.
The next test concerns Mouse B cells. The experiment in a line: 3H-thymidine incorporation by mouse B cells. The test is classed as cell-based. On the procedure: Mouse B cells were isolated from 2 Balb/C spleens (7 months old) by depleting CD43+ cells using MACS magnetic beads. Purified B cells were cultured in vitro with LPS, anti-IgM or anti-CD40 monoclonal antibodies. Mouse IL-28 or mouse IFNα was added to the cultures and ^3H-thymidine was added at 48 hrs. and ^3H-thymidine incorporation was measured after 72 hrs. culture.
(In general: Dividing cells build labelled thymidine or BrdU into new DNA.)

A further test relates to OAS activity. The experiment in a line: OAS activity in serum and plasma of treated mice (OAS radioimmunoassay). Type of test: in vivo, mouse. To be noted: i.v., 10 μg-250 μg. The method, then:
Serum and plasma were isolated from mice at varying time points, and OAS activity was measured using the OAS radioimmunoassay (RIA) kit from Eiken Chemicals (Tokyo, Japan).

In the case of “HuCRF2-4-Fc: human CRF2-4-Fc homodimeric soluble receptor”, the “inhibition of zcyto20, zcyto21 and zcyto24-induced signaling” value with zcyto20 is reported as “No significant effects”.

B1: IL-28A: human IL-28A cytokine polypeptide, previous designation zcyto20 (e.g. SEQ ID NO:18, CHO-derived) (protein, listed as Homo sapiens)
chain: MKLDMTGDCTPVLVLMAAVLTVTGAVPVARLHGALPDARGCHIAQFKSLSPQELQAFKRAKDALEESLLLKDCRCHSRLFPRTWDLRQLQVRERPMALEAELALTLKVLEATADTDPALVDVLDQPLHTLHHILSQFRACIQPQPTAGPRTRGRLHHWLYRLQEAPKKESPGCLEASVTFNLFRLLTRDLNCVASGDLCV
modifications: SIGNAL (1)...(25)
B1: the “ISG gene expression (OAS, Pkr, Mx1) in the livers, spleen and blood of mice” value with mouse OAS, Pkr and Mx1 is “did not induce”.

B2: Zcyto24: mouse IL-28 (zcyto24), SEQ ID NO:8 (protein, listed as Mus musculus)
chain: MKPETAGGHMLLLLLPLLLAAVLTRTQADPVPRATRLPVEAKDCHIAQFKSLSPKELQAFKKAKDAIEKRLLEKDLRCSSHLFPRAWDLKQLQVQERPKALQAEVALTLKVWENMTDSALATILGQPLHTLSHIHSQLQTCTQLQATAEPRSPSRRLSRWLHRLQEAQSKETPGCLEASVTSNLFRLLTRDLKCVANGDQCV
Turning to B2, in test [1], the “Mx1 (expression relative to HPRT)” value stood at 0.08, the “OAS (expression relative to HPRT)” value amounted to 0.04 and the “PkR (expression relative to HPRT)” value is on record as 0.02. The “liver and inflammation scores (liver histology) versus the PBS-treated group” value with adenoviral vector, AdGFP is “lower”. For the same molecule, in the test on Mouse B cells (B cells stimulated with LPS or anti-IgM, IFNα 10 ng/ml, mouse IL-28 any concentration including 1000 ng/ml, 72 hrs), the 3H-thymidine incorporation result is on record as “did not inhibit”. Besides, the 3H thymidine incorporation result in the test with Mouse B cells (B cells stimulated with anti-CD40 MAb) is “increased”.

B3: IL-29: human IL-29 cytokine polypeptide, previous designation zcyto21 (e.g. SEQ ID NO:20, CHO-derived) (protein, listed as Homo sapiens)
chain: MAAAWTVVLVTLVLGLAVAGPVPTSKPTTTGKGCHIGRFKSLSPQELASFKKARDALEESLKLKNWSCSSPVFPGNWDLRLLQVRERPVALEAELALTLKVLEAAAGPALEDVLDQPLHTLHHILSQLQACIQPQPTAGPRPRGRLHHWLHRLQEAPKKESAGCLEASVTFNLFRLLTRDLKYVADGNLCLRTSTHPEST
modifications: SIGNAL (1)...(19)
For B3, the “ISG gene expression (OAS, Pkr, Mx1) in the livers, spleen and blood of mice” value in the test with mouse OAS, Pkr and Mx1 is on record as “induced”. Further, the “OAS activity in the serum and plasma of mice” value with OAS activity is listed as “induced”. Besides, the “liver and inflammation scores (liver histology) versus the PBS-treated group” value in the test with adenoviral vector, AdGFP is recorded as “lower”.

B4: Muzcytor19-Ig: murine zcytor19-Ig homodimeric soluble receptor (protein)
chain: RPRLAPPRNVTLFSQNFTVYLTWLPGLGSPPNVTYFVTYQSYIKTGWRPVEHCAGIKALVCPLMCLKKLNLYSKFKGRVQAASAHGRSPRVESRYLEYLFDVELAPPTLVLTQMEKILRVNATYQLPPCMPSLELKYQVEFWKEGLGSKTLFPDTPYGQPVQIPLQQGASRRHCLSARTVYTLIDIKYSQFSEPSCIFLEAPGDKRA
modifications: left off: a dimerising Fc or GST
notes: murine zcytor19-Ig homodimeric soluble receptor
For B4, the “inhibition of zcyto20, zcyto21 and zcyto24-induced signaling” value with zcyto20 is on record as “No significant effects”.
